According to the DeepSol protein solubility set:

Assay: soluble on expression in E. coli; label from the status in PepcDB or PDB records

| Sequence | soluble on expression in E. coli |
| --- | --- |
| MHVLIVDDEPLAREELSYLVSQHPQVTSVAEADSVAEAMEEMMDQKPDLLFLDIHLTDESGFDLAEKLTHLKKAPYLVFATAYDQYALKAFQVNAKDYILKPFEEEKITQVIEKASKEMGQAVPENTAEKGPKSEAIPIQGEDRIYLVAPEDIYLVSVEERQLSIFVDQQVYKMTGTLNSIEQKLPATLFIKTHRSFILNRTKIQEIQPWFNNTLQVILTNGSKVPVSRSYVKEFKEKLGLS | not soluble |
| MHVTRNVGKSQKLHHVSLKQVLSYLEPHEQEDTKPVTSTKNKGFLLFNSHQNTLNTHMHGAMNSPCIDFVMFSRGQHDEDNMSRRPPWKRERSMSTQHHHLNLSPNEDEELANCLVLLSNSGDAHGGDQHKQHGHGKGKTVKKQKTAQVFQCKACKKVFTSHQALGGHRASHKKVKGCFASQDKEEEEEEEYKEDDDDNDEDEDEEEDEEDKSTAHIARKRSNAHECTICHRVFSSGQALGGHKRCHWLTPSNYLRMTSLHDHHHSVGRPQPLDQPSLDLNLACQEYSVDPTAMSVGMIERDGGGNNHNATSSSWLKLASGDWS | not soluble |
| MHYCEPGWFELIRHRLAFFKDNAAPFKILFLADLHYSRFVPLSLISDAIALGIEQKPDLILLGGDYVLFDMSLNFSAFSDVLSPLAECAPTFACFGNHDRPVGTEKNHLIGETLKSAGITVLFNQATVIATPNRQFELVGTGDLWAGQCKPPPASEANLPRLVLAHNPDSKEVMRDEPWDLMLCGHTHGGQLRVPLVGEPFAPVEDKRYVAGLNAFGERHIYTTRGVGSLYGLRLNCRPEVTMLELVLEHHHHHH | not soluble |
| MHYLSPLSLSLFLFCIEGHRESFSFFPSHDDGWAEPTARSEGKRERERERERERERGERGPTDTLSLSLSQFT | not soluble |
| MIAATPQAMDKQPSAKNQPCGIDKEVGTIANTVITLMPKYIDTNVIVLRHSCANRPPWRNAATNHANNPRNPSKNSTDITTPIDAAISGTACPFIRFSNSAIN | not soluble |
| MIAEQHQAVVDSGASKKGAKVGFVSLGCPKNLVDSERILTQLRTEGYDVTNSYDDAELVIVNTCGFIDSAVQESLDTIGEALAANGKVLVTGCLGVKKDEIIELHPNVLGVTGPHAYDEVLAQVHEHVAKPEHNPFIDLVPPQGVKLTPKHYAYLKISEGCNHRCTFCIIPSMRGDLDSRPVGDVLGEAKRLVDSGVKELLVISQDTSAYGVDVKHKTDFWDGMPVKTHMQQLCEELAKQGVWIRLHYVYPYPHVDKIIPLMAEGKILPYLDIPFQHANKRILKLMKRPGSSDRVLERIAKWREICPELVIRSTFIVGFPGETEEEFEELLNFLEEAQLDRVGCFKYSPVEGATANALPDHVSDEVMEDRLQRFMAVQAKISSDKLQVRIGQEYLILVDEVNGLGIVGRSYMDAPEVDGKVYLSDDYDAKPGDQIWVQIIHADEHDVWGVRVED | soluble |
| MIARLAIAALLVSSSLACLPGLGGLGGGCGGAAASPCAAPPMPPPVSCGGGCGAAPYPAGPMAAPYFAPAAIAPPPPPQGAVIGVGAQPAVYSAPLPAGNAYVGQGK | not soluble |
| MIATYNTNVGDVLMLITANDKGEKVNFERKGKVARVFIEETGATVAWNIFEAKSLLANLSGNGQVVLSSDDIETLNKELGKSGFSDVLVHDAQPKFVVAEIVEMEDHPDSDHLHICKVNVGFADPVQIVCGAPNAALGLKTVAALPGAMMPNGSLIFPGALRGVQSYGMLCSARELELPNAPEVRGIIELSSDLSAGKAFDSETMWQALEHHHHHH | soluble |
| MIDDRQEEKMIKENVYFDGNVKSLGFSQQDGESTVGVMAPGQYTFGTGAPERMTVVKGALTIKRVTDADWVTFTAGEAFEVAGNSSFDLQVEVATAYLCEFLPA | not soluble |
| MIDEWPVPTAAAAVIGPSGVLATHGDDAKPFALASVTKLLVARAAQVAIEEGVVELDTPAGPDGSTVRHLLAHTSGVAMNSADTVAQVGQRRVYSNFGFGLLAHAIEDAAEIEFGRYLTEAVFEPLGMSTSKLLGGADAAGFGVTSTVSDLARFAGDLLRPALVSQQMHDEATSVQFPGVNGVLPGFGSQRPNDWGLGFEIRDGKTPHWTGSSNSPRTFGHFGQSGTFLWVDPVADLALLVLTDRDFGDWTYPLWPAISDGVLREIGTHLEHHHHHH | not soluble |
